Tests used:
Assay in all cases: cell-based or functional assay
[1] = target: CenNLS^GFP: Centauri fragment of superfolder GFP, HA tag, triple SV40 NLS
[2] = target: CenNup214^NLuc: Centauri fragment of NanoLuc, HA tag, full-length Nup214 (UniProt P35658)
[3] = target: CenNLS^NLuc: Centauri fragment of NanoLuc, HA tag, triple SV40 NLS

Sequence of UniProt P35658 (P35658 whole entry, the tested form may be a part): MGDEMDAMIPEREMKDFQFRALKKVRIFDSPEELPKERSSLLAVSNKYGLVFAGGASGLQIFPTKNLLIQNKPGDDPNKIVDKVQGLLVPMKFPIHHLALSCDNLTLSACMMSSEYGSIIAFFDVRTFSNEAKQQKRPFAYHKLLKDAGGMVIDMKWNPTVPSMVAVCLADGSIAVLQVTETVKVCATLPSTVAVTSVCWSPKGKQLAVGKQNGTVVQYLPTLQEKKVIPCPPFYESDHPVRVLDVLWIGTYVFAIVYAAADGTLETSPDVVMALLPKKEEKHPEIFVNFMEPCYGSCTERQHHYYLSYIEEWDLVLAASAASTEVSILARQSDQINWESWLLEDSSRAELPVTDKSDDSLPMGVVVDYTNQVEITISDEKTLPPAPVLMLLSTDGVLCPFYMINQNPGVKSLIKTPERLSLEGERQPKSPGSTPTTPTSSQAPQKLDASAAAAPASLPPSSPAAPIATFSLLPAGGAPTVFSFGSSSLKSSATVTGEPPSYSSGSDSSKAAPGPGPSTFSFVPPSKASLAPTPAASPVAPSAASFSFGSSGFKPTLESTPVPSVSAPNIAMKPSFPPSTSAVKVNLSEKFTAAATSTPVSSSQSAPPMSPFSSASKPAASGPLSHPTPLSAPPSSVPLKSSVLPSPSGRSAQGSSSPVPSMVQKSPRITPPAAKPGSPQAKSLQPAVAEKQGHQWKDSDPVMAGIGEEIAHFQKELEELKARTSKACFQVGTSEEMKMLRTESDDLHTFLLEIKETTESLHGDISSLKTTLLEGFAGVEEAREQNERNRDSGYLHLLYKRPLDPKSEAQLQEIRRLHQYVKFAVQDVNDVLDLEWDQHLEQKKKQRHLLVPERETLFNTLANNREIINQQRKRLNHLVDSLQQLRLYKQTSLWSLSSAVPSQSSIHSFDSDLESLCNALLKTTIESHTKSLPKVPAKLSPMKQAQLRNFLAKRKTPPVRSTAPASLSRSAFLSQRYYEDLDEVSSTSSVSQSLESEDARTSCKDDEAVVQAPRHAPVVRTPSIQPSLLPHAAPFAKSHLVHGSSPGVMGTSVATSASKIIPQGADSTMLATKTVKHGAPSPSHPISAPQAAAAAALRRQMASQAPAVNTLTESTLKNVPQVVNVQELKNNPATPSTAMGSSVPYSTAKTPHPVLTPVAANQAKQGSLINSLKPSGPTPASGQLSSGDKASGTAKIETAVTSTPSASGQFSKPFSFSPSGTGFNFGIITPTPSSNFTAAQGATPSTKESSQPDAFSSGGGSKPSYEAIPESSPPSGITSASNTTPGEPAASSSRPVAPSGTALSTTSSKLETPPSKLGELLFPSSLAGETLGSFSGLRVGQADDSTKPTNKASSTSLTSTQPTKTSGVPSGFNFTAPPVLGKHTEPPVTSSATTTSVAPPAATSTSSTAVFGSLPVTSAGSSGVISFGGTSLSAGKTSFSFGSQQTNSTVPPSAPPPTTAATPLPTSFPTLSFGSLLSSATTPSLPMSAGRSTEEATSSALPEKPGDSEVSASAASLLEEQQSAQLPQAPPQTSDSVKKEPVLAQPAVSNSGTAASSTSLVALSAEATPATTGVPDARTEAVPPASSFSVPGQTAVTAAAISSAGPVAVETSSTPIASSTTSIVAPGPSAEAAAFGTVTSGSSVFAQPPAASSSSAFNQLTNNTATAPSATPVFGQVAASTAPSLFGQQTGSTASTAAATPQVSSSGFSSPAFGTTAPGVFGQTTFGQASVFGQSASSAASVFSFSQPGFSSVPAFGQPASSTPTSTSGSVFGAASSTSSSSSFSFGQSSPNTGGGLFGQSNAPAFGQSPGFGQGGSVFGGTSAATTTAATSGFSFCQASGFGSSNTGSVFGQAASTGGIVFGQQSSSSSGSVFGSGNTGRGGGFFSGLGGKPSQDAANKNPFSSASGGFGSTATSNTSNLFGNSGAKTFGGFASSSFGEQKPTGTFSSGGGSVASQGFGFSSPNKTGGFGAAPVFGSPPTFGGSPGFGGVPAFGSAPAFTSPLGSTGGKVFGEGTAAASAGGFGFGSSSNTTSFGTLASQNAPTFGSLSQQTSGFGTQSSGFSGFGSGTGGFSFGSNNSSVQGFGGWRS

Work on “HIV-1 LAI integrase (IN) with α^GFP fused at its C-terminus, as carried by αHIV^GFP (from UniProt P03367 1160-1447)” yielded a fold increase in fluorescence (flow cytometry, 48 hpi) [1] of 5 to 10 fold.
In the case of “HIV-1 LAI integrase (IN) with α^NLuc fused at its C-terminus, as carried by αHIV^NLuc (from UniProt P03367 1160-1447)”, the fold increase in NLuc signal [2] is reported as 10 fold and the fold increase in emitted luminescence signal (plate luminometry) [3] is reported as 5 to 200 fold.
For “HIV-1 LAI integrase D116I mutant with α^NLuc fused at its C-terminus, as carried by αHIV-D116I^NLuc (from UniProt P03367 1160-1447)”, the fold increase in NLuc compared to infection in the presence of Nevirapine [3] was 10 fold.
In the case of “IRF3α-3xFLAG: IRF3 fused to the α fragment of NanoLuc and a 3xFLAG tag (from UniProt Q14653 1-427)”, the αCentauri complementation, luminescence fold above uninfected controls (SeV infection, 6 h) [3] is reported as 3 to 6 fold.
